Data: article PMC6175910

Experiments:
[1] = target: Msm RbpA/sigmaA RNAP holoenzyme, beta S447L (Mycobacterium smegmatis (strain MGM6029), UniProt A0QSL8;P60281;A0QS66;A0QWT1;A0QW02;A0QZ11 1-350;1-1169;1-1317;1-107;1-466;1-114, S447L); experiment: X-ray crystallography (3.45 A); Kang A soaked in; Footprinting: 10 mM Tris-HCl pH 8, 10 mM K-glutamate, 5 mM MgCl2, 0.1 mM DTT, 15 ug/mL BSA, 37 C, 400 nM RNAP; crystals: 0.1 M Bis-Tris pH 6.0, 0.2 M LiSO4, 16% PEG 3350, 2.5% ethylene glycol, 22 C; details: protein: recombinant; tags: beta' C-terminal ppx-His10; chain copies: 2;1;1;1;1;1
[2] = target: Msm RbpA/sigmaA RNAP holoenzyme (wild type) (Mycobacterium smegmatis (strain MGM6029), UniProt A0QSL8;P60281;A0QS66;A0QWT1;A0QW02;A0QZ11 1-350;1-1169;1-1317;1-107;1-466;1-114); experiment: X-ray crystallography (3.05 A); Rif soaked in; Footprinting: 10 mM Tris-HCl pH 8, 10 mM K-glutamate, 5 mM MgCl2, 0.1 mM DTT, 15 ug/mL BSA, 37 C, 400 nM RNAP; crystals: 0.1 M Bis-Tris pH 6.0, 0.2 M LiSO4, 16% PEG 3350, 2.5% ethylene glycol, 22 C; details: protein: recombinant; tags: beta' C-terminal ppx-His10; chain copies: 2;1;1;1;1;1; 3' overhang 5 nt on strand 1 (upstream fork), other end blunt

B1: Usfork_T10 upstream fork promoter DNA (dsDNA)
DNA 1: GCTTGACAAAAGTGTTAAATTGTGCTATACT
DNA 2: AGCACAATTTAACACTTTTGTCAAGC
B1: binds [1]; binds [2].
